Data on one molecule can be found in publication PMC10456876 (2023).

The target of the assay is human telomeric nucleosome core particle (teloNCP) (human, UniProt P68431 1-136; P62805 1-103; P04908 1-130; P06899 1-124). The assay can be described thus: EMSA, concentration at 50% bound.

B1: wild-type MBP-tagged TRF1core (TRF1-TIN2-TPP1) (complex)
chain 1: MAEDVSSAAPSPRGCADGRDADPTEEQMAETERNDEEQFECQELLECQVQVGAPEEEEEEEEDAGLVAEAEAVAAGWMLDFLCLSLCRAFRDGRSEDFRRTRNSAEAIIHGLSSLTACQLRTIYICQFLTRIAAGKTLDAQFENDERITPLESALMIWGSIEKEHDKLHEEIQNLIKIQAIAVCMENGNFKEAEEVFERIFGDPNSHMPFKSKLLMIISQKDTFHSFFQHFSYNHMMEKIKSYVNYVLSEKSSTFLMKAAAKVVESKRTRTITSQDKPSGNDVEMETEANLDTRKSVSDKQSAVTESSEGTVSLLRSHKNLFLSKLQHGTQQQDLNKKERRVGTPQSTKKKKESRRATESRIPVSKSQPVTPEKHRARKRQAWLWEEDKNLRSGVRKYGEGNWSKILLHYKFNNRTSVMLKDRWRTMKKLKLISSDSED
chain 2: MATPLVAGPAALRFAAAASWQVVRGRCVEHFPRVLEFLRSLRAVAPGLVRYRHHERLCMGLKAKVVVELILQGRPWAQVLKALNHHFPESGPIVRDPKATKQDLRKILEAQETFYQQVKQLSEAPVDLASKLQELEQEYGEPFLAAMEKLLFEYLCQLEKALPTPQAQQLQDVLSWMQPGVSITSSLAWRQYGVDMGWLLPECSVTDSVNLAEPMEQNPPQQQRLALHNPLPKAKPGTHLPQGPSSRTHPEPLAGRHFNLAPLGRRRVQSQWASTRGGHKERPTVMLFPFRNLGSPTQVISKPESKEEHAIYTADLAMGTRAASTGKSKSPCQTLGGRALKENPVDLPATEQKENCLDCYMDPLRLSLLPPRARKPVCPPSLCSSVITIGDLVLDSDEEENGQGEGKESLENYQKTKFDTLIPTLCEYLPPSGHGAIPVSSCDCRDSSRPL
chain 3: MAGSGRLVLRPWIRELILGSETPSSPRAGQLLEVLQDAEAAVAGPSHAPDTSDVGATLLVSDGTHSVRCLVTREALDTSDWEEKEFGFRGTEGRLLLLQDCGVHVQVAEGGAPAEFYLQVDRFSLLPTEQPRLRVPGCNQDLDVQKKLYDCLEEHLSESTSSNAGLSLSQLLDEMREDQEHQGALVCLAESCLTLEGPCTAPPVTHWAASRCKATGEAVYTVPSSMLCISENDQLILSSLGPCQRTQGPELPPPDPALQDLSLTLIASPPSSPSSSGTPALPGHMSSEESGTSISLLPALSLAAPDPGQRSSSQPSPAICSAPATLTPRSPHASRTPSSPLQSCTPSLSPRSHVPSPHQALVTRPQKPSLEFKEFVGLPCKNRPPFPRTGATRGAQEPCSVWEPPKRHRDGSAFQYEYEPPCTSLCARVQAVRLPPQLMAWALHFLMDAQPGSEPTPM
modifications: phosphoserine at 434, 435 and 437 (reported for the purified TRF1core sample from Sf9)
Regarding B1, the EC50 (in general, the midpoint of the concentration-response curve) worked out at 37 nM.
